The values below come from patent publication US6440701 (AVENTIS PASTEUR, dated 2002).

The assay concerns the target apo-hTf-Sepharose 4B (human apo-transferrin coupled to Sepharose 4B) (human, UniProt P02787 20-698, coupled to Sepharose 4B). Description: affinity chromatography of solubilized membranes on apo-hTf-Sepharose 4B.

Sequence of apo-hTf-Sepharose 4B (human apo-transferrin coupled to Sepharose 4B) (P02787 20-698 limits assumed): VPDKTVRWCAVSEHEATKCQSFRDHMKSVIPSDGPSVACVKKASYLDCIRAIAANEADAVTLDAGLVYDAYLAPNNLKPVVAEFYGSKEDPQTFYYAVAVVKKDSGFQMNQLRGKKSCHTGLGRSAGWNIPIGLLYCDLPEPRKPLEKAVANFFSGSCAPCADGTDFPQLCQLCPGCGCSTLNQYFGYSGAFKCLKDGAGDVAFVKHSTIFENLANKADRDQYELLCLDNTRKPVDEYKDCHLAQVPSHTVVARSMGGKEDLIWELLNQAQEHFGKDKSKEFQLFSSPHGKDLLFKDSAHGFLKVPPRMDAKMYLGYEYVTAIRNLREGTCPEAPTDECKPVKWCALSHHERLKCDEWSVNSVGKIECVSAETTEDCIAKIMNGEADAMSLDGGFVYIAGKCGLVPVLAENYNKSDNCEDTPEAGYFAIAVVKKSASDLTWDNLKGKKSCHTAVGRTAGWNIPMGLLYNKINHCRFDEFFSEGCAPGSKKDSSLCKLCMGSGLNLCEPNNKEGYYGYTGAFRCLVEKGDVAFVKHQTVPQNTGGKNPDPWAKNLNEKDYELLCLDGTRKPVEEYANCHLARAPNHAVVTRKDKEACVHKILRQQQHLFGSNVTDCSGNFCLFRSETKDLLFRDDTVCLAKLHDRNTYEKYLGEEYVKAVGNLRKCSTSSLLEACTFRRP

B1: Native Tbp2 (4223) (receptor)
chain: CGGSGGSNPPAPTPIPNASGSGNTGNTGNAGGTDNTANAGNTGGTNSGTGSANTPEPKYQDVPTEKNEKDKVSSIQEPAMGYGMALSKINLHNRQDTPLDEKNIITLDGKKQVAEGKKSPLPFSLDVENKLLDGYIAKMNVADKNAIGDRIKKGNKEISDEELAKQIKEAVRKSHEFQQVLSSLENKIFHSNDGTTKATTRDLKYVDYGYYLANDGNYLTVKTDKLWNLGPVGGVFYNGTTTAKELPTQDAVKYKGHWDFMTDVANRRNRFSEVKENSQAGWYYGASSKDEYNRLLTKEDSAPDGHSGEYGHSSEFTVNFKEKKLTGKLFSNLQDRHKGNVTKTERYDIDANIHGNRFRGSATASNKNDTSKHPFTSDANNRLEGGFYGPKGEELAGKFLTNDNKLFGVFGAKRESKAEEKTEAILDAYALGTFNTSNATTFTPFTEKQLDNFGNAKKLVLGSTVIDLVPTDATKNEFTKDKPESATNEAGETLMVNDEVSVKTYGKNFEYLKFGELSIGGSHSVFLQGERTATTGEKAVPTTGTAKYLGNWVGYITGKDTGTGTGKSFTDAQDVADFDIDFGNKSVSGKLITKGRQDPVFSITGQIAGNGWTGTASTTKADAGGYKIDSSSTGKSIVIKDANVTGGFYGPNANEMGGSFTHNADDSKASVVFGTKRQQEVK
Take B1: the binding result is reported as “binds”.
